Results published in publication PMC8516981.

Legend:
[1] = target: α-synuclein (αS) fibrils (human) (UniProt P37840); experiment: microfluidic diffusional sizing; in solution; DnaJB1 or Apg2 alone with αS fibrils (concentrations as monomer equivalents); 50 mM HEPES-KOH pH 7.5, 50 mM KCl, 5 mM MgCl2, 2 mM DTT
[2] = target: α-synuclein (αS) fibrils (human) (UniProt P37840); experiment: microfluidic diffusional sizing; in solution; labelled Hsc70 with αS fibrils (concentrations as monomer equivalents); 50 mM HEPES-KOH pH 7.5, 50 mM KCl, 5 mM MgCl2, 2 mM DTT; in the presence of ATP and DnaJB1
[3] = target: α-synuclein (αS) fibrils (human) (UniProt P37840); experiment: microfluidic diffusional sizing; in solution; labelled Hsc70 with αS fibrils (concentrations as monomer equivalents); 50 mM HEPES-KOH pH 7.5, 50 mM KCl, 5 mM MgCl2, 2 mM DTT; in the presence of ATP

heat shock cognate Hsc70 (HSPA8), sequence (P11142 whole entry): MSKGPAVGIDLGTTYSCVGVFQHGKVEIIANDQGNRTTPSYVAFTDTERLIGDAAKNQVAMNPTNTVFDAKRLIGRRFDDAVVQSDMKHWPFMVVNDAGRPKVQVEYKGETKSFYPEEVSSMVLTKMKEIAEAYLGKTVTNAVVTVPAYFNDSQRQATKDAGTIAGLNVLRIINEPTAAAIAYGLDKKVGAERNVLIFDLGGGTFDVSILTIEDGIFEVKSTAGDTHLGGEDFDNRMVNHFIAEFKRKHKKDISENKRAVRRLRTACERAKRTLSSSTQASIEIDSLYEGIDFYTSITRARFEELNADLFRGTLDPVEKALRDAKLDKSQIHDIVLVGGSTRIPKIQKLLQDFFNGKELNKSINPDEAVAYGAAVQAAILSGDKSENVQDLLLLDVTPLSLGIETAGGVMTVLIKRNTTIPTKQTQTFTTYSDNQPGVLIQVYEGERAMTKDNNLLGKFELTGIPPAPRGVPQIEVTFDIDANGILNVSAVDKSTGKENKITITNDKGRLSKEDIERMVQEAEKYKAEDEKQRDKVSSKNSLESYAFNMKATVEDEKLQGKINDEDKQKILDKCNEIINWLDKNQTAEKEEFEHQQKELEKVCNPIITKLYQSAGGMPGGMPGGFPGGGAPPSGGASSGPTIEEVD
DnaJB1 (Hsp40 class B J-protein), sequence (P25685 whole entry): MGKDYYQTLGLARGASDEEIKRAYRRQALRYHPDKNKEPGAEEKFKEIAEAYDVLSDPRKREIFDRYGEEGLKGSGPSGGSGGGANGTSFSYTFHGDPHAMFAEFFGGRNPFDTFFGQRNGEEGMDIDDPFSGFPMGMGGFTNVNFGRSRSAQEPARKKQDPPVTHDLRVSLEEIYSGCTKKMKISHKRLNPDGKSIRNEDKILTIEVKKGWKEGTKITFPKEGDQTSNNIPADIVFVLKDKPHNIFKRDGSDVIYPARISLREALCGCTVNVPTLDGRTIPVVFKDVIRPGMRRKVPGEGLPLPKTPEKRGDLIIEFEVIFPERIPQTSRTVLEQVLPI

“DnaJB1 (Hsp40 class B J-protein) (from UniProt P25685 1-340) (natural protein)” was tested. Which Kd [1] did it give?
The Kd was 0.246 µM.

Which Kd [2] does the source give for “heat shock cognate Hsc70 (HSPA8) (from UniProt P11142 1-646) (natural protein)” here?
Its Kd is 0.0475 µM.

And the Kd [3]?
Its Kd is 0.139 µM.

And the stoichiometry N (αS monomer units per Hsc70 molecule) [3]?
The stoichiometry N (αS monomer units per Hsc70 molecule) was 5.3.
